± gives the uncertainty stated by the source.
B1: Zinc finger homeobox protein 4, residues 2562 to 2617; numbered along this chain, Q86UP3 (parent)
chain: RLRTTITPEQLEILYEKYLLDSNPTRKMLDHIAREVGLKKRVVQVWFQNTRARERK

Variants of: B1
Assay: abundance fitness (aPCA) (normalised: wild type 0, dead -1); higher = more abundant; growth selection in yeast, the domain comes from the species named
Conditions: Homo sapiens

Abundance fitness, by site and new letter:
A52: W -0.347 ± 0.078 | K -0.086 ± 0.13 | T -0.372 ± 0.08 | L -0.226 ± 0.069 | S -0.197 ± 0.099 | G -0.096 ± 0.054 | R -0.321 ± 0.071
K27: L -0.019 ± 0.053 | C -0.096 ± 0.11 | N -0.112 ± 0.12 | M -0.206 ± 0.14 | Q 0.082 ± 0.092 | R -0.475 ± 0.062 | W -0.302 ± 0.081
I6: W -0.465 ± 0.072 | L -0.196 ± 0.07 | P -0.056 ± 0.074 | Q -0.761 ± 0.14 | C -0.565 ± 0.1
S22: I -0.436 ± 0.16 | P -0.402 ± 0.14 | E 0.248 ± 0.1 | W -0.461 ± 0.072 | D 0.035 ± 0.12 | M -0.155 ± 0.12
R51: A 0.17 ± 0.053 | Y -0.192 ± 0.1 | L 0.234 ± 0.086 | K 0.039 ± 0.081 | P -1.05 ± 0.26 | M -0.021 ± 0.067 | T -0.242 ± 0.084
E9: Q -0.152 ± 0.08 | M -0.171 ± 0.059 | P -0.178 ± 0.057 | L -0.202 ± 0.057 | A -0.069 ± 0.051 | S -0.173 ± 0.057
Y18: M -0.856 ± 0.32 | P -0.842 ± 0.25 | C -0.817 ± 0.077 | F 0.425 ± 0.18 | R -0.659 ± 0.12 | E -0.943 ± 0.22 | N -0.59 ± 0.42
P24: T -0.947 ± 0.12 | H -0.847 ± 0.2 | G -0.852 ± 0.099 | N -0.754 ± 0.1 | Q -0.929 ± 0.12 | A -0.861 ± 0.15 | F -0.503 ± 0.18
L20: G -0.114 ± 0.059 | E -0.092 ± 0.08 | K 0.035 ± 0.11 | P -0.652 ± 0.21 | Q -0.182 ± 0.072
L11: N -0.189 ± 0.11 | E 0.092 ± 0.12 | K -0.05 ± 0.09 | I -0.037 ± 0.16 | M -0.062 ± 0.089 | G -0.017 ± 0.066
Q48: A 0.2 ± 0.093 | V -0.152 ± 0.071 | G 0.178 ± 0.079 | S -0.049 ± 0.074 | H -0.139 ± 0.14
Q44: R -0.191 ± 0.061 | E 0.298 ± 0.056 | T -0.053 ± 0.097 | N -0.131 ± 0.14 | I -0.28 ± 0.092 | W -0.045 ± 0.094 | Y 0.202 ± 0.13 | M -0.132 ± 0.09
H31: K 0.146 ± 0.095 | D 0.05 ± 0.1 | N -0.335 ± 0.25 | W -0.119 ± 0.11 | T 0.206 ± 0.08 | L -0.112 ± 0.087
L38: P -0.787 ± 0.12 | T -0.933 ± 0.27 | W -0.884 ± 0.17 | C -0.301 ± 0.12
R55: W -0.114 ± 0.076 | V 0.276 ± 0.083 | S 0.09 ± 0.052 | N 0.297 ± 0.15 | G 0.11 ± 0.059
L19: P -0.897 ± 0.29 | A -0.094 ± 0.077 | C -0.084 ± 0.1 | G -0.023 ± 0.049 | T -0.175 ± 0.11 | N -0.091 ± 0.14 | M -0.131 ± 0.1 | F -0.065 ± 0.13 | W -0.229 ± 0.085
V42: L -0.126 ± 0.083 | G -0.533 ± 0.067 | Q -0.038 ± 0.15 | H -0.079 ± 0.13
R3: M 0.182 ± 0.072 | L -0.008 ± 0.072 | K 0.288 ± 0.11 | S 0.301 ± 0.073 | F -0.02 ± 0.14 | V 0.132 ± 0.067 | T 0.359 ± 0.089
K40: G 0.103 ± 0.073 | T 0.199 ± 0.074 | C 0.108 ± 0.12 | A 0.163 ± 0.087 | I 0.143 ± 0.12
L14: T -1 ± 0.18 | R -0.849 ± 0.096 | K -1.05 ± 0.17 | W -1.16 ± 0.17 | D -0.754 ± 0.26 | C -1.16 ± 0.25
R41: P 0.246 ± 0.093 | W -0.102 ± 0.071 | Y 0.037 ± 0.079 | V 0.013 ± 0.086 | F -0.044 ± 0.089 | D 0.001 ± 0.19 | S 0.306 ± 0.067 | T 0.213 ± 0.088 | E 0.517 ± 0.098
T7: E 0.259 ± 0.14 | P -0.165 ± 0.2 | W -0.708 ± 0.24 | L -0.206 ± 0.12
K17: T -0.109 ± 0.14 | G -0.513 ± 0.2 | W -0.58 ± 0.27 | A -0.289 ± 0.2 | P -0.334 ± 0.42 | S -0.164 ± 0.16
T25: L -0.546 ± 0.13 | P -0.147 ± 0.13 | S -0.056 ± 0.11 | D -0.193 ± 0.17
K56: D 0.085 ± 0.34 | A -0.241 ± 0.46 | T 0.267 ± 0.15
I13: E -0.06 ± 0.07 | V -0.072 ± 0.064 | K 0.173 ± 0.08 | G -0.235 ± 0.081 | N -0.161 ± 0.24 | M -0.088 ± 0.12 | Y -0.017 ± 0.1
T50: P -0.738 ± 0.077 | L -0.137 ± 0.071 | E 0.265 ± 0.11 | S 0.06 ± 0.083 | K 0.028 ± 0.072 | N -0.127 ± 0.1 | W -0.097 ± 0.086
E35: W -0.597 ± 0.11 | G -0.258 ± 0.066 | V -0.306 ± 0.081 | L -0.25 ± 0.083
L2: K 0.24 ± 0.1 | A -0.059 ± 0.065 | E 0.429 ± 0.079 | W -0.421 ± 0.12 | I -0.115 ± 0.14 | N 0.309 ± 0.09
D30: Q -0.102 ± 0.092 | I -0.056 ± 0.29 | S -0.062 ± 0.077 | G -0.052 ± 0.062
R34: Y 0.245 ± 0.12 | W -0.139 ± 0.067 | N 0.161 ± 0.18 | S 0.17 ± 0.084 | M -0.053 ± 0.063 | Q 0.107 ± 0.06
G37: W -1.1 ± 0.28 | A -0.258 ± 0.098 | H -0.471 ± 0.2
I32: R -1.08 ± 0.12 | F -0.377 ± 0.18 | W -0.23 ± 0.12 | M -0.366 ± 0.15 | T -0.405 ± 0.076 | Q -1.24 ± 0.27
E12: V -0.062 ± 0.062 | T 0.164 ± 0.1 | P -0.659 ± 0.077 | K 0.238 ± 0.12 | G -0.039 ± 0.058 | N -0.075 ± 0.25 | S 0.048 ± 0.053 | A 0.01 ± 0.059 | F 0.083 ± 0.12 | L -0.002 ± 0.07
Q10: H -0.466 ± 0.071 | K -0.524 ± 0.11 | V -0.283 ± 0.058 | W -0.695 ± 0.068
R26: D 0.285 ± 0.12 | G -0.143 ± 0.18 | Y 0.867 ± 0.26 | T 0.52 ± 0.12 | P -0.236 ± 0.33 | N 1.41 ± 0.34
V43: R -0.974 ± 0.072 | P -0.862 ± 0.24 | W -0.78 ± 0.089 | T -0.553 ± 0.079 | D -0.778 ± 0.22 | N -0.829 ± 0.4
P8: L 0.167 ± 0.068 | V 0.168 ± 0.099 | F -0.038 ± 0.17 | Q -0.232 ± 0.19 | E 0.197 ± 0.12 | T -0.452 ± 0.13
A33: P -0.563 ± 0.2 | R -0.541 ± 0.18 | T -0.331 ± 0.22 | C -0.003 ± 0.36 | G -0.344 ± 0.07 | H -0.86 ± 0.14
N23: W -0.208 ± 0.11 | K -0.054 ± 0.11 | H -0.302 ± 0.27 | Y -0.062 ± 0.12 | G -0.121 ± 0.072 | R 0.017 ± 0.057 | F 0.301 ± 0.15 | I -0.091 ± 0.15 | C -0.738 ± 0.2
R53: Q 0.145 ± 0.1 | V -0.03 ± 0.077 | A -0.014 ± 0.07 | I -0.156 ± 0.16 | T 0.021 ± 0.1
L29: S -0.498 ± 0.066 | R -0.346 ± 0.053 | G -0.94 ± 0.11 | P -0.752 ± 0.18 | W -0.004 ± 0.092 | H -0.95 ± 0.29 | T -0.228 ± 0.08
Y15: E 0.301 ± 0.071 | Q 0.092 ± 0.068 | G 0.009 ± 0.057 | D -0.02 ± 0.12 | T 0.067 ± 0.086 | C -0.063 ± 0.069 | K 0.1 ± 0.05
T5: L -0.298 ± 0.15 | S -0.068 ± 0.053 | G -0.132 ± 0.097 | M -0.241 ± 0.29 | W -0.397 ± 0.16 | P -0.032 ± 0.25 | K -0.332 ± 0.31 | Y -0.252 ± 0.23 | I 0.057 ± 0.17
R1: C 0.24 ± 0.25
E54: T -0.737 ± 0.17 | V -0.523 ± 0.063 | Y -0.715 ± 0.29 | D -0.122 ± 0.067 | L -0.201 ± 0.056 | M -0.09 ± 0.14 | Q -0.664 ± 0.25
F47: A -0.983 ± 0.17 | N -0.905 ± 0.22 | W 0.049 ± 0.079
V36: K -0.726 ± 0.19 | D -0.27 ± 0.13 | H -0.418 ± 0.23 | R -1.03 ± 0.14 | S 0.019 ± 0.068 | M -0.134 ± 0.089 | P -0.649 ± 0.13
K39: T 0.284 ± 0.091 | R -0.126 ± 0.06 | Q 0.032 ± 0.14 | I -0.784 ± 0.24 | V -0.01 ± 0.096 | Y 0.406 ± 0.14
D21: G -0.433 ± 0.081 | V -0.465 ± 0.075 | F -0.302 ± 0.16 | A -0.435 ± 0.085 | P -0.769 ± 0.3 | W -0.505 ± 0.12
V45: A -0.243 ± 0.092 | L -0.111 ± 0.056 | F -0.738 ± 0.2 | D 0.192 ± 0.067 | T -0.045 ± 0.075 | S -0.309 ± 0.1
M28: I -0.101 ± 0.15 | C -0.067 ± 0.11 | K -0.582 ± 0.17 | V -0.119 ± 0.074 | Y -0.406 ± 0.099 | T -0.003 ± 0.066 | F -0.591 ± 0.1 | G -0.108 ± 0.055 | H -0.305 ± 0.096 | E -0.003 ± 0.099 | N -0.409 ± 0.12
T4: D 0.304 ± 0.089 | M -0.022 ± 0.085 | H -0.145 ± 0.079 | N -0.488 ± 0.18 | G -0.052 ± 0.053 | R -0.63 ± 0.075 | F -0.062 ± 0.13
W46: T -0.756 ± 0.27 | Q -1.05 ± 0.25 | I -0.939 ± 0.15 | P -0.802 ± 0.088 | K -1.03 ± 0.15 | G -0.752 ± 0.066 | H -0.878 ± 0.4 | E -0.549 ± 0.093
N49: T -0.102 ± 0.12 | V -0.125 ± 0.074 | E 0.253 ± 0.1 | D -0.043 ± 0.1 | R -0.477 ± 0.077 | P -0.73 ± 0.23

Reference: the Human Domainome abundance scans (Beltran et al. 2025)
